For test [1], the target named is T cell Immunoglobulin- and Mucin domain-containing molecule 3 (TIM3), human, on cells (human) (UniProt Q8TDQ0). Kind of test: cell binding (flow cytometry), CMK cells. For orientation: In flow cytometry, cells or beads pass a laser one at a time.
For test [2] the target is unchanged. The test can be described thus: cell binding (flow cytometry), Daudi cells.
Test [3] shares this target. The test can be described thus: cell binding (flow cytometry), Pfeiffer cells.
For test [4] the target is unchanged. The test can be described thus: flow cytometry, CD34+ cells from a set of AML samples.
Test [5] shares this target. The test can be described thus: flow cytometry, PBMCs of AML patient 1, Blast population.
The target is the same in test [6]. Kind of test: flow cytometry, PBMCs of AML patient 2, Blast population.
The target is the same in test [7]. The test can be described thus: flow cytometry, PBMCs of AML patient 3, Blast population.
For test [8] the target is unchanged. The test can be described thus: flow cytometry, PBMCs of AML patient 1, CD34+CD38- population.
Test [9] has the same target. The test can be described thus: flow cytometry, PBMCs of AML patient 2, CD34+CD38- population.
For test [10] the target is unchanged. The test can be described thus: flow cytometry, PBMCs of AML patient 3, CD34+CD38- population.
Test [11] has the same target. The test can be described thus: flow cytometry, bone marrow cells of AML patient 2, Blast population.
The target is the same in test [12]. The test can be described thus: flow cytometry, bone marrow cells of AML patient 2, CD34+CD38- population.
The target is the same in test [13]. The test can be described thus: flow cytometry; cells not named in the table (Example 5 uses Pfeiffer cells).
Test [14] has the same target. Kind of test: cell-based or functional assay.
For test [15] the target is unchanged. Kind of test: flow cytometry, PBMCs of AML patient 4, Blast population.
Test [16] has the same target. The test can be described thus: flow cytometry, PBMCs of AML patient 5, Blast population.
For test [17] the target is unchanged. Kind of test: flow cytometry, PBMCs of AML patient 4, CD34+CD38- population.
Test [18] shares this target. Kind of test: flow cytometry, PBMCs of AML patient 5, CD34+CD38- population.
For test [19] the target is unchanged. Kind of test: flow cytometry, bone marrow cells of AML patient 1, Blast population.
The target is the same in test [20]. The test can be described thus: flow cytometry, bone marrow cells of AML patient 1, CD34+CD38- population.

Where only a bound is given, the exact number is not on record here.

Sequence of T cell Immunoglobulin- and Mucin domain-containing molecule 3 (TIM3), human, on cells (human) (Q8TDQ0 22-301 limits assumed): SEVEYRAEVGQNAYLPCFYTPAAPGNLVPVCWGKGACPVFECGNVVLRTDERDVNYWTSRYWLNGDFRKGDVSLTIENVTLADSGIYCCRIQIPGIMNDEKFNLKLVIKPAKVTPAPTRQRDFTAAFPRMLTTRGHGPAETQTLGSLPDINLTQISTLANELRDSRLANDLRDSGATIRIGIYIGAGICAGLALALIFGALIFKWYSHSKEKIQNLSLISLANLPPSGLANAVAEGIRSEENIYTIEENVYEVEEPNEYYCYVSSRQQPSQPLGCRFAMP

With TIM3 2E2 (antibody), the results for the percentage of cell binding in test [1], in test [2] and in test [3] were 19%, 90% and 97%, respectively. Besides, in test [3], the Geomean is 308. Further, in test [4], the Positive/total (AML samples whose CD34+ cells were bound) (of 14 samples) worked out at 0. Also, the percent binding in test [5] came out at 2.92%; in test [6], 59.3%; in [7] it was 1.01%; in [8], 3.26%; in test [9], 64.8%; in test [10] it was 0.17%. In addition, the values for the percent binding in test [11] and in test [12] were 1.8% and 1.6%, respectively. This molecule also displayed a % Positive for TIM3 in [13] of 89.9%. The molecule further gave a GeoMean (Intensity of TIM3 binding) in [13] of 198.

B1: 8.16C10 (antibody, IgG1, V domains shown)
VH: QIQLQQSGPELVKPGASVKISYKASGYTFTDYYINWVKQKPGQGLEWIGWIYPGSGITKYNEKFKGKATLTVDSSSSTAYMQLSSLTSEDTAVYFCAIYGYDGGYAMDYWGQGTSVTVSS
VL: QIVLTQSPAIMSASPGEKVTLTCSASSSVSSSYLYWYQQKPGSSPKLWIYSTSNLASGVPARFSGGGSGTSYSLTISSMEAEDAASYFCHQWSTYPYTFGGGTKLEIKR
Turning to B1, in test [14], the IFN-gamma release from activated CD4+ T cells (ELISA), antibody at 5 ug/ml (fold reduction) was above 2. This molecule also returned an IL-6 release from activated CD4+ T cells (ELISA), antibody at 5 ug/ml (fold reduction) in [14] above 2. The molecule also yielded a percent of antibody internalized after 20 minutes, Pfeiffer cells in [14] above 50%. In addition, the percentage of cell binding in test [2] is 67%; in test [3], 85%. Moreover, the percent binding in test [5] was determined as 3.13%; in test [6] it was 68.1%; in [7], 0.83%; in test [15], 78%; in test [16], 25%; in test [8], 4.67%. The percent binding in test [9] was determined as 76.4%; in test [10], 0.49%; in test [17] it was 87%; in test [18], 25%; in [19] it was 55.6%; in test [11], 2.61%. For the same molecule, the percent binding worked out at 19.2% in test [20] and 1.47% in test [12]. The % Positive for TIM3 in [13] came out at 92.5%. This molecule also showed a GeoMean (Intensity of TIM3 binding) in [13] of 83.8.

Source of the values: US20150086574A1 (CELLERANT THERAPEUTICS, published 2015).
